These results are taken from patent US20200399344A1 (SHATTUCK LABS, published 2020).

Values joined by “and” are separate entries in the source; they are usually repeats but may differ in a detail not shown here. Equal values may be shown once.

In test [1] the target is T1, recombinant human CD2 protein (rhCD2-His) (human, UniProt P06729 25-209).
T1 construct: also called recombinant CD2 protein; not shown: His tag
T1 sequence (looked up): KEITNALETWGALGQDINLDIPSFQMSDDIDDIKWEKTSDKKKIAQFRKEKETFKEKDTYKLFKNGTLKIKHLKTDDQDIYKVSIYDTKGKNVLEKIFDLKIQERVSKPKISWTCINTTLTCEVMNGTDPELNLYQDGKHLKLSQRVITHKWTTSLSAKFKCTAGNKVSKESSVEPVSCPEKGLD
As to the kind of experiment: ELISA: coat rhCD2-His (Acro CD2-H5226), detection Anti-hFc-HRP. Here is the method:
(§1) Recombinant human CD2 (rhCD2) protein was coated on plates. Increasing amounts of the indicated chimeric proteins or Recombinant human CD58-Fc fusion protein (rhCD58-Fc) were added and detected using an anti-mFc-HRP (for mCD80-Fc-NKG2A) or anti-hFc-HRP (for rest of the proteins).
(§2) CD2 is a transmembrane protein in T cells that binds to its ligand CD58 on APC in humans and on CD48 in rodents. To understand whether the CD48 and CD58 parts of the hCD48-Fc-NKG2A, and hCD58-Fc-NKG2A chimeric protein can bind CD2, ELISA-based assays were performed. Briefly, recombinant human CD2 protein (rhCD2-His) was coated on plates and increasing amounts of the hCD48-Fc-NKG2A, hCD58-Fc-NKG2A, and mCD80-Fc-NKG2A chimeric proteins and recombinant hCD58-Fc protein was added to the plates for capture by the plate-bound recombinant CD2 protein. The […] chimeric protein served as a negative control and recombinant hCD58-Fc protein served as a positive control. The hCD48-Fc-NKG2A and hCD58-Fc-NKG2A, chimeric proteins and recombinant hCD58-Fc protein bound to the recombinant CD2 protein was detected using an anti-human Fc HRP. The mCD80-Fc-NKG2A chimeric protein bound to the recombinant CD2 protein was detected using an anti-mouse Fc HRP.
In general terms: An ELISA detects its analyte on a solid surface through an enzyme-linked reagent.

In test [2] the target is T2, recombinant human CD28-His (rhCD28-His) (human, UniProt P10747 19-152).
T2 construct: also called Human CD28-His protein; recombinant CD28 protein; not shown: His tag
Kind of test: ELISA: coat hCD28-His (negative control coat), detection printed as Anti-mFc-HRP (Jax 115-036-003). As for the experimental part:
(§3) CD48 binds 2B4 (CD244), a member of the signaling lymphocyte-activation molecule (SLAM) family. To understand whether the CD48 part of the hCD48-Fc-NKG2A chimeric protein can bind […], ELISA-based assays were performed. Briefly, recombinant 2B4-His protein was coated on plates. Human CD28-His protein coated on negative control plates. Increasing amounts of the hCD48-Fc-NKG2A chimeric protein was added to the plates for capture by the plate-bound recombinant 2B4-His protein. […]

The target of test [3] is T3, recombinant human 2B4 protein (rh2B4-His) (human, UniProt Q9BZW8-2 22-221, limits assumed).
T3 construct: also called recombinant 2B4-His protein; not shown: His tag
T3 sequence (looked up): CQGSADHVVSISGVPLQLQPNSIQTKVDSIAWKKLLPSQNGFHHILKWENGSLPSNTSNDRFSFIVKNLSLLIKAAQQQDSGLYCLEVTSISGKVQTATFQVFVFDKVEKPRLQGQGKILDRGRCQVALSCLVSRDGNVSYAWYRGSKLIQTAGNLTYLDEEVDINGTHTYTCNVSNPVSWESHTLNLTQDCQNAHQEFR
As to the kind of experiment: ELISA: coat h2B4-His (Sino #10042-H08H), detection printed as Anti-mFc-HRP (Jax 115-036-003). Here is the method:
as §3

Test [4] has as its target T4, anti-human IgG antibody (plate-bound).
T4 construct: also called anti-human Fc antibody
Kind of test: ELISA (single sided Fc): coat Anti-Human IgG (H+L) Jax# 109-005-088, detection HRP Goat anti-human FCgamma. As for the experimental part:
In another set of experiments, an anti-human IgG antibody was coated on plates and increasing amounts of the hCD48-Fc-NKG2A, hCD58-Fc-NKG2A, and hCD80-Fc-NKG2A chimeric proteins, and a human IgG antibody were added to the plates for capture by the plate-bound […]. The human IgG antibody was used as a positive control and to generate a standard curve. The binding to the anti-human IgG antibody was detected using an anti-human Fcgamma HRP.

In test [5] the target is T5, recombinant HLA-E-His protein (human, UniProt P13747 22-305, limits assumed).
T5 construct: also called recombinant HLA-E (HLA-E-His); not shown: His tag
As to the kind of experiment: ELISA: the chimeric protein is the titrated coat (1:3), detection HLA-E-His (Novus NBP2-47435PEP), HRP Anti-6x-His-HRP. Here is the method:
In a complementary experiment, increasing amounts of the hCD48-Fc-NKG2A, hCD58-Fc-NKG2A, and hCD80-Fc-NKG2A chimeric proteins or a negative control protein was coated on plates. Recombinant HLA-E-His protein was added to the plates for capture by the plate-bound chimeric proteins or the negative control protein. The captured HLA-E-His protein was detected using an anti-6×-His-HRP antibody.

The target of test [6] is T6, recombinant human 2B4-Fc fusion protein (rh2B4-Fc) (human, UniProt Q9BZW8-2 22-221, limits assumed).
T6 construct: not shown: Fc
T6 sequence (looked up): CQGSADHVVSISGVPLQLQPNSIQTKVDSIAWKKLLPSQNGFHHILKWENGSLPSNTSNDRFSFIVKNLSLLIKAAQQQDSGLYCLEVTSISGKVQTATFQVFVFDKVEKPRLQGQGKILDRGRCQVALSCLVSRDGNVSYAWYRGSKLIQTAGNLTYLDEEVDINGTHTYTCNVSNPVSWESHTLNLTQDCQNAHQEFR
As to the kind of experiment: dual ELISA; coat rh2B4-Fc (for SL-048), CD48-Fc-NKG2a titrated, detection HLA-E-His, Anti 6x-His-HRP; the signal needs both bindings. As for the experimental part:
(i) recombinant human 2B4-Fc fusion protein (rh2B4-Fc) was coated on plates. Increasing amounts of the hCD48-Fc-NKG2A or hCD86-Fc-NKG2A chimeric proteins were added and detected using HLA-E-His. The hCD86-Fc-NKG2A chimeric protein was used as a negative control (Negative control #1). […] (ii) recombinant human CD2-Fc fusion protein (rhCD2-Fc) was coated on plates. Increasing amounts of the hCD58-Fc-NKG2A or hCD86-Fc-NKG2A chimeric proteins were added and detected using HLA-E-His. The hCD86-Fc-NKG2A chimeric protein was used as a negative control (Negative control #2).
To understand whether the hCD48-Fc-NKG2A chimeric protein can bind simultaneously to both 2B4 and HLA-E, the following ELISA experiment was carried out. Briefly, and recombinant 2B4 (rh2B4-Fc) protein was coated on plates. Increasing amounts of the hCD48-Fc-NKG2A chimeric protein was added to the plates for capture by the recombinant human 2B4-Fc (rh2B4-Fc) protein. Further, recombinant HLA-E (HLA-E-His) protein was added to the plate for capture by hCD48-Fc-NKG2A chimeric proteins. The binding of the HLA-E-His protein was detected using an anti-His 6× HRP antibody.

For test [7], the target named is T3, recombinant human 2B4 protein …. As to the kind of experiment: ELISA: coat rh2B4-His (Sino 10042-H08H), detection Anti-hFc-HRP. Here is the method: (§4) Increasing amounts of the indicated chimeric proteins or rhCD48-Fc were added and detected using an anti-mFc-HRP (for mCD80-Fc-NKG2A) or anti-hFc-HRP (for rest of the proteins).
(§5) CD48 is the ligand for 2B4. To understand whether the CD48 parts of the hCD48-Fc-NKG2A chimeric protein can bind 2B4, ELISA-based assays were performed. Briefly, recombinant human 2B4 protein (rh2B4-His) was coated on plates and increasing amounts of the hCD48-Fc-NKG2A and mCD80-Fc-NKG2A chimeric proteins and recombinant human CD48-Fc (rhCD48-Fc) protein was added to the plates for capture by the plate-bound recombinant 2B4 protein. The hCD48-Fc-NKG2A chimeric protein and recombinant human CD48-Fc (rhCD48-Fc) protein bound to the recombinant 2B4 protein was detected using an anti-human Fc HRP. The mCD80-Fc-NKG2A chimeric protein, which was used as a negative control, bound to the recombinant 2B4 protein was detected using an anti-mouse Fc HRP.

Test [8] addresses T1, recombinant human CD2 protein …. Kind of test: ELISA: coat rhCD2-His (Acro CD2-H5226), detection Anti-mFc-HRP for mCD80. As for the experimental part:
as §1, §2

Test [9] has as its target mCTLA-4, plate-bound (mouse, UniProt P09793 36-162, limits assumed). Kind of test: ELISA (single-sided): coat mCTLA-4-Fc (Acro), detect Anti-mFc-HRP (Jax).
Test [10] addresses T7, HLA class I histocompatibility antigen, alpha chain E (HLA-E), plate-bound recombinant protein (human, UniProt P13747 22-305, limits assumed).
T7 construct: no tag named there; also called recombinant HLA-E protein
As to the kind of experiment: ELISA (single-sided): coat hHLA-E (NOVUS), detect Anti-mFc-HRP (Jax).

Test [11] concerns the target T8, mTGFβ1, recombinant, plate-bound (mouse, UniProt P04202 279-390, limits assumed).
T8 construct: also called recombinant TGFβ1 protein
As to the kind of experiment: ELISA: coat mTGFB1 (R+D 7666-MB), detection Anti-mFc-HRP. Here is the method: TGFβ1 is a ligand of TGFBR2. To understand whether the TGFBR2 part of the TGFBR2-Fc-NKG2A chimeric protein can bind TGFβ1, ELISA-based assays were performed. Briefly, recombinant TGFβ1 protein was coated on plates and increasing amounts of the TGFBR2-Fc-NKG2A chimeric protein was added to the plates for capture by the plate-bound recombinant TGFβ1 protein. The chimeric protein bound to the recombinant TGFβ1 protein was detected using an anti-mFc HRP.

In test [12] the target is T3, recombinant human 2B4 protein …. Kind of test: ELISA: coat rh2B4-His (Sino 10042-H08H), detection Anti-mFc-HRP for mCD80. Here is the method: as §4, §5
Test [13] addresses T9, anti-mFc IgG antibody (plate-bound).
T9 construct: also called anti-Fc antibody
As to the kind of experiment: Fc ELISA: coat Anti-mFc (Jax), detect Anti-mFc-HRP (Jax). An excerpt:
A mouse whole IgG was used to generate a standard curve.

Test [14] has as its target T10, mCD28, plate-bound (mouse, UniProt P31041 20-149, limits assumed).
T10 sequence (looked up): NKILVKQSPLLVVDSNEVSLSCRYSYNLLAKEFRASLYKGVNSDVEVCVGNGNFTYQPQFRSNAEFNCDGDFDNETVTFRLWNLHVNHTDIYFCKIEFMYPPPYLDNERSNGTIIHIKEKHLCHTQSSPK
As to the kind of experiment: ELISA (single-sided): coat mCD28-Fc (Acro), detect Anti-mFc-HRP (Jax).

T7 sequence (P13747 22-305 limits assumed): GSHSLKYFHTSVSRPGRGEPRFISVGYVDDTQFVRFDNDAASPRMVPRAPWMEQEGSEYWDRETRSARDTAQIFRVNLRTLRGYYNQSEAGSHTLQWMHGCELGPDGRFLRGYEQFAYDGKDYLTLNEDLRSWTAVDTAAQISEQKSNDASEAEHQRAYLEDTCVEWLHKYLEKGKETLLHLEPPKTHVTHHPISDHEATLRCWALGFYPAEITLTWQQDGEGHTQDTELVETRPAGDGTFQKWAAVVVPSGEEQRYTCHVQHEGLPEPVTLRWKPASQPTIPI
T8 sequence (P04202 279-390 limits assumed): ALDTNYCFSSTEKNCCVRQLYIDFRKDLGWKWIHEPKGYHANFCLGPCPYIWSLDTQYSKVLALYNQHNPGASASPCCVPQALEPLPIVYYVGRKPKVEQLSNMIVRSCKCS
T2 sequence (P10747 19-152 limits assumed): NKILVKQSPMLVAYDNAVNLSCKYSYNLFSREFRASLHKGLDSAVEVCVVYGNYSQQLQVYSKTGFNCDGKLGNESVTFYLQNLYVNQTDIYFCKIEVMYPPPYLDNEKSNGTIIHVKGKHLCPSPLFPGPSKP
T5 sequence (P13747 22-305 limits assumed): as the sequence (P13747 22-305 limits assumed) above

B1: human CD48-Fc-NKG2A chimeric protein (Fc fusion)
chain: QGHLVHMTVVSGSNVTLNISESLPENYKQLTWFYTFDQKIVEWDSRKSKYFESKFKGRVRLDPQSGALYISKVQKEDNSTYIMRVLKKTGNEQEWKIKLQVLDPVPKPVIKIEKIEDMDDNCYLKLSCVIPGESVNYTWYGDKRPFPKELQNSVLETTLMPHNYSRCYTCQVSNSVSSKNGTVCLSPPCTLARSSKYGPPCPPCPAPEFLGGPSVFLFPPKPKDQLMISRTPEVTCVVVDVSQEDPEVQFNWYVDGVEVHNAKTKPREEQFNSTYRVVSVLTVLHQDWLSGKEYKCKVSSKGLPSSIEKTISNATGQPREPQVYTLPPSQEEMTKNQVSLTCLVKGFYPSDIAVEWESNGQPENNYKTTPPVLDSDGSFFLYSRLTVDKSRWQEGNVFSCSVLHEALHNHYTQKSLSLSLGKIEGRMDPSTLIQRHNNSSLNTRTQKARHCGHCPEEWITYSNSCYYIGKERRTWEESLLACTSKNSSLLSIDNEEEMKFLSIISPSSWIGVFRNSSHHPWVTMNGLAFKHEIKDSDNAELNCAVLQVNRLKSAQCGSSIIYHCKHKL
notes: also called hCD48-Fc-NKG2A
On to B1, for which the binding result is “binds” in test [1] and “no binding (tested: log[Agonist] about 2.7, ug/ml)” in [2]. Moreover, the 50% effective concentration (EC50 (read off the curve)) is around 2 µg/mL in test [3]; around 0.7 µg/mL in [4]; around 2 µg/mL in test [5]; around 50 µg/mL in test [6]; around 2 µg/mL in test [7].

B2: mouse CD80-Fc-NKG2A chimeric protein (Fc fusion)
chain: VDEQLSKSVKDKVLLPCRYNSPHEDESEDRIYWQKHDKVVLSVIAGKLKVWPEYKNRTLYDNTTYSLIILGLVLSDRGTYSCVVQKKERGTYEVKHLALVKLSIKADFSTPNITESGNPSADTKRITCFASGGFPKPRFSWLENGRELPGINTTISQDPESELYTISSQLDFNTTRNHTIKCLIKYGDAHVSEDFTWEKPPEDPPDSKNVPRDCGCKPCICTVPEVSSVFIFPPKPKDVLTITLTPKVTCVVVDISKDDPEVQFSWFVDDVEVHTAQTQPREEQFNSTFRSVSELPIMHQDWLNGKEFKCRVNSAAFPAPIEKTISKTKGRPKAPQVYTIPPPKEQMAKDKVSLTCMITDFFPEDITVEWQWNGQPAENYKNTQPIMDTDGSYFVYSKLNVQKSNWEAGNTFTCSVLHEGLHNHHTEKSLSHSPGIIEGRMDTPYTEAKAQINSSMTRTHRDINYTLSSAQPCPHCPKEWISYSHNCYFIGMERKSWNDSLVSCISKNCSLLYIDSEEEQDFLQSLSLISWTGILRKGRGQPWVWKEDSIFKPKIAEILHDECNCAMMSASGLTADNCTTLHPYLCKCKFPI
notes: also called mCD80-Fc-NKG2A; mCD80-Fc-NKG2a
B2: the binding result was “no binding (tested: log[Agonist] about 2.7, ug/ml)” in test [8]; “no binding (tested: log[Agonist] about 2.7, ug/ml)” in test [11]; “no binding (tested: log[Agonist] about 2.7, ug/ml)” in test [12]. In addition, the EC50 is 0.958 nM and 0.705 nM in [9]; 247 nM and 140 nM in test [10]; 2.02 nM and 1.36 nM in test [13]; 30.8 nM and 22.6 nM in test [14].

As a reminder, the EC50 (read off the curve) is the concentration at which the effect is half-maximal. Broadly, the EC50 is the concentration at which the effect is half-maximal.
